The values below are quoted from earlier work in PMC9731471.

By Kd is commonly meant the equilibrium constant for the complex coming apart.

This series addresses podoplanin (Homo sapiens) (UniProt Q86YL7).

In the case of CLEC-2 (from UniProt Q9P126), the Kd is 24 µM.
